# Laboratory results reported in PMC4866044.
# Key:
# [1] = target: HA-RanBP2 mFG1/2, full-length (human) (UniProt P49792); assay: co-IP; αHA-agarose immunoprecipitation from nocodazole-arrested HEK293T cells depleted of endogenous RanBP2 by siRNA and transfected with HA-RanBP2 constructs; Crm1 blot normalised to HA-RanBP2, three biological replicates
# Cy3-labelled Crm1 = Cy3-labelled Crm1 (UniProt O14980); assay: MST; details: Cy3-labelled Crm1 20 nM; RanBP2-3/4 fragments 0.3 nM-10 μM; no RanQ69L; laser-power 70%, LED-power 20%; parent: est. 0.94; read off a plot
reduction of co-immunoprecipitated Crm1 against wild-type HA-RanBP2 [1],"other: fraction of bound Crm1-Cy3 at the highest RanBP2-3/4 concentration (10,000 nM) (Cy3-labelled Crm1)",Substance
40%,–,"Crm1, endogenous (HEK293T) (from UniProt O14980 1-1071) (natural protein)"
–,0.04,"RanBP2-3/4-His (aa 2,304–3,062), free fragment (from UniProt P49792) mFG12 (= mFG1/2, 11 F to S mutations in both FG-repeat patches; positions not printed)"
